Biological target: human MDL-1 (human) (UniProt Q9NY25)
Assay: cell-based or functional assay

human MDL-1 (human), sequence (Q9NY25 whole entry): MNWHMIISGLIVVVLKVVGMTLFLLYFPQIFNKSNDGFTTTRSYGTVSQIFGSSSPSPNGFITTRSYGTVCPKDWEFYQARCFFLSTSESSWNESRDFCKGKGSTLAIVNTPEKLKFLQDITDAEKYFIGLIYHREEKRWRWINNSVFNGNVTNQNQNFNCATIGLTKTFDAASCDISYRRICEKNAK

secreted beta-hexosaminidase, OD (405-570), DT808 mouse mast cells, cross-link: 0.065 OD (405-570) | secreted beta-hexosaminidase, OD (405-570), DT808 mouse mast cells, no cross-link: 0.1 OD (405-570)
Substance: rat isotype control mAb (rIgG1) (antibody)
